Test results taken from publication PMC7380666.

Experiment: purification, SEC and SDS-PAGE
Conditions: glycan lost; control: wild-type mCD98hcED

B1: mCD98hcED (murine CD98hc extracellular domain): N385D/T401A (protein)
parent chain: MSQDTEVDMKDVELNELEPEKQPMNAADGAAAGEKNGLVKIKVAEDETEAGVKFTGLSKEELLKVAGSPGWVRTRWALLLLFWLGWLGMLAGAVVIIVRAPRCRELPVQRWWHKGALYRIGDLQAFVGRDAGGIAGLKSHLEYLSTLKVKGLVLGPIHKNQKDEINETDLKQINPTLGSQEDFKDLLQSAKKKSIHIILDLTPNYQGQNAWFLPAQADIVATKMKEALSSWLQDGVDGFQFRDVGKLMNAPLYLAEWQNITKNLSEDRLLIAGTESSDLQQIVNILESTSDLLLTSSYLSNSTFTGERTESLVTRFLNATGSQWCSWSVSQAGLLADFIPDHLLRLYQLLLFTLPGTPVFSYGDELGLQGALPGQPAKAPLMPWNESSIFHIPRPVSLNMTVKGQNEDPGSLLTQFRRLSDLRGKERSLLHGDFHALSSSPDLFSYIRHWDQNERYLVVLNFRDSGRSARLGASNLPAGISLPASAKLLLSTDSARQSREEDTSLKLENLSLNPYEGLLLQFPFVA
For B1, the stability_or_folding was “no change”.
